The text below walks through data of patent publication US10562935B2, “Stapled peptides and uses thereof” (London Health Sciences Centre Research Inc., priority 2015, dated 2020).

Bridges are numbered along the chain shown (N, C = ends).

Data set [1] is described as follows: Circular dichroism (CD) spectroscopy of linear and stapled peptides in water or 40% TFE/water (Example 3). The data set is classed as physicochemical. The following applies: for [0]208 mean residue ellipticity: λ = 208 nm; for [0]222 mean residue ellipticity: λ = 222 nm. As for the experimental part:
CD spectra were obtained on a Jasco J-810 spectropolarimeter and recorded in the range of 180-260 nm. Peptide solutions were prepared with a 0.1M phosphate buffer solution to a concentration of 0.5 mM. The measurements were performed in quartz cuvettes with a path length of 1 mm and a scanning speed of 10-50 nm/min. Five individual data points were averaged by the instrument in order to obtain the reported CD spectrum. The measurements were carried out at 20° C. A blank solution of 0.1M phosphate buffer solution was run before every measurement in order to baseline correct for any UV-interference observed from the buffer.
CD data for the 14- and 15-mer peptides containing HABD2 (VSKLRSQLVKRKQN, SEQ ID NO: 2) and HABD1 (NLKQKIKHVVKLKDE, SEQ ID NO: 4) and cyclized derivatives thereof in water or 40% TFE/water are provided below in Tables 8 (water) and 9 (40% TFE/water). Tables 8 and 9 provide the mean residue ellipicity ([θ] deg cm^2 dmol^−1) at λ=222 and 208 nm for each peptide and ratios of ellipticities at 222/208. Each of the peptides was acetylated at its amino terminus and amidated at its carboxy terminus.
CD data for linear peptides having the sequences […] (SEQ ID NO: 5) and […] (SEQ ID NO: 6) and cyclized derivatives thereof in water or 40% TFE/water are provided below in Tables 12 (water) and 13 (40% TFE/water). Tables 12 and 13 provide the mean residue ellipicity ([0] deg cm^2 dmol^−1) at λ=222 and 208 nm for each peptide and ratios of ellipticities at 222/208. Each of the peptides was acetylated at its amino terminus and amidated at its carboxy terminus.
Circular Dichroism (CD) spectroscopy is a tool that is used to study the secondary structure characteristics of a compound. Peptides and proteins can fold into organized structures, such as alpha helices and beta sheets, which are the result of complex hydrogen bonding and other interactions between amino acid side chains, as well as adopt a random coil formation, which lacks much of the organization of the other two structures. The CD spectrum of an alpha helix is characterized by two local minima at 208 nm and 222 nm. The ratio of the values of the molar ellipticities at these wavelengths ([θ]222/[θ]208) is a strong indication of the relative helicity of a compound; a compound is more helical when the ratio of these two values approaches 1.0. Synthetic constraints introduced to the peptide backbone can force a peptide chain to increase its helical character. These constraints can be introduced by staples, of varying types, which allow cyclization of the peptide backbone to take place.
(In general: Circular dichroism is widely used to follow secondary structure.)

In a further data set the test system is NF-κB. Kind of data set: Inflammation assay: NF-κB inducible SEAP reporter in RAW-Blue macrophages stimulated with PAM3CSK4. The data set is classed as cell-based, murine. To be noted: for Inflammation (% Inhib.): % inhibition relative to positive control. How it is done: Compounds 132, 133, 135, 150, 152, 157-161, 265-269, 275, 277, and 278 were evaluated for their ability to inhibit inflammation. To determine the effect of the peptides on inflammation, commercially available murine RAW 264.7 macrophages carrying a secreted embryonic alkaline phosphatase (SEAP) reporter that is inducible by NF-κB (RAW-Blue; InvivoGen, San Diego, Calif., USA) were used. Cells were grown to 80% confluence in DMEM containing 4.5 g/L glucose, 10% heat-inactivated fetal bovine serum, 2 mM L-glutamine, 50 μg/mL penicillin/streptomycin, 100 μg/mL Normocin (InvivoGen) at 37° C. in 5% CO2. For peptide screening experiments, cells were scraped in growth medium, counted, and plated to flat-bottom 96-well plates at a density of 5×10^4 cells/well either in the presence or absence (control) of 200 ng/mL TLR1/TLR2 agonist PAM3CSK4 (InvivoGen). Peptides were added in 6 replicate wells at a dose of 10 ng/mL in the presence of PAM3CSK4. After 18 hours of stimulation, SEAP concentrations (indicating NF-κB activity) were measured in the supernatants collected from the RAW-Blue cells using QUANTI-BLUE reagent (InvivoGen). After 20 minutes of incubation at 37° C., SEAP levels were determined using spectrophotometry at a wavelength of 630 nm.
Values are the mean and SDM of n=3 replicates. *p<0.05 and ***p<0.001 compared to +PAM3. In FIGS. 44 and 45, where bars are labeled with two compound numbers (“133/150” and “135/152”) this means that the data were pooled for the indicated compounds, i.e., for the non-acetylated and acetylated versions of the indicated peptides.

Setting [2] is: [θ]222/[θ]208 ratio in water, summary tables 15, 17, 19.
[3] abbreviates: as repeated in tables 16, 18, 20.

Regarding “Ac-(cyclo-7,11)-NLKQKI[EHVVK]LKDE-NH2 (Ac-NLKQKIEHVVKLKDE-NH2; lactam 7-11; SMILES CC[C@H](C)[C@H](NC(=O)[C@H](CCCCN)NC(=O)[C@H](CCC(N)=O)NC(=O)[C@H](CCCCN)NC(=O)[C@H](CC(C)C)NC(=O)[C@H](CC(N)=O)NC(C)=O)C(=O)N[C@H]1CCC(=O)NCCCC[C@@H](C(=O)N[C@@H](CC(C)C)C(=O)N[C@@H](CCCCN)C(=O)N[C@@H](CC(=O)O)C(=O)N[C@@H](CCC(=O)O)C(N)=O)NC(=O)[C@H](C(C)C)NC(=O)[C@H](C(C)C)NC(=O)[C@H](Cc2c[nH]cn2)NC1=O) [Compound 160]”, the “[θ]222/[θ]208 ratio of ellipticities” value in data set [1] (setting [2]) and in data set [1] (setting [3]) was 0.55 each time. The “[0]222/[0]208 ratio of ellipticities” value in data set [1] (in 40% TFE/water) worked out at 0.86; in data set [1] (in water) it was 0.55. The figures for the “[0]208 mean residue ellipticity” value in data set [1] (in 40% TFE/water) and in data set [1] (in water) were -1.65E+04 deg cm^2 dmol^−1 and -6.98E+03 deg cm^2 dmol^−1, respectively. For the same substance, the “[0]222 mean residue ellipticity” value is recorded as -1.42E+04 deg cm^2 dmol^−1 in data set [1] (in 40% TFE/water) and -3.85E+03 deg cm^2 dmol^−1 in data set [1] (in water). The “Inflammation (% Inhib.)” value with NF-κB was 0 % Inhib.
Turning to “Ac-(cyclo-5,9)-VSKL[ESQLK]KRKQN-NH2 (Ac-VSKLESQLKKRKQN-NH2; lactam 5-9; SMILES CC(=O)N[C@H](C(=O)N[C@@H](CO)C(=O)N[C@@H](CCCCN)C(=O)N[C@@H](CC(C)C)C(=O)N[C@H]1CCC(=O)NCCCC[C@@H](C(=O)N[C@@H](CCCCN)C(=O)N[C@@H](CCCNC(=N)N)C(=O)N[C@@H](CCCCN)C(=O)N[C@@H](CCC(N)=O)C(=O)N[C@@H](CC(N)=O)C(N)=O)NC(=O)[C@H](CC(C)C)NC(=O)[C@H](CCC(N)=O)NC(=O)[C@H](CO)NC1=O)C(C)C) [Compound 151]”, the “[θ]222/[θ]208 ratio of ellipticities” value in data set [1] (setting [2]) was determined as 0.70. Besides, the “[θ]222/[θ]208 ratio of ellipticities” value in data set [1] (setting [3]) worked out at 0.70. In data set [1] (in 40% TFE/water), the “[0]222/[0]208 ratio of ellipticities” value amounted to 0.82, the “[0]208 mean residue ellipticity” value is -1.62E+04 deg cm^2 dmol^−1 and the “[0]222 mean residue ellipticity” value is -1.33E+04 deg cm^2 dmol^−1. Also, in data set [1] (in water), the “[0]222/[0]208 ratio of ellipticities” value is 0.70, the “alpha-helical character by CD (in words)” value is “alpha-helical character equal to that of the linear peptide”, the “[0]208 mean residue ellipticity” value was -9.25E+03 deg cm^2 dmol^−1 and the “[0]222 mean residue ellipticity” value is -6.45E+03 deg cm^2 dmol^−1.
Turning to “Ac-(cyclo-10-14, cyclo-15-19)-KIKHVVKLK[EENSK][KKSEE]SKLRSQLVKRK-NH2 (Ac-KIKHVVKLKEENSKKKSEESKLRSQLVKRK-NH2; lactam 10-14, 15-19; SMILES CC[C@H](C)[C@H](NC(=O)[C@H](CCCCN)NC(C)=O)C(=O)N[C@@H](CCCCN)C(=O)N[C@@H](Cc1c[nH]cn1)C(=O)N[C@H](C(=O)N[C@H](C(=O)N[C@@H](CCCCN)C(=O)N[C@@H](CC(C)C)C(=O)N[C@@H](CCCCN)C(=O)N[C@H]1CCC(=O)NCCCC[C@@H](C(=O)N[C@H]2CCCCNC(=O)CC[C@@H](C(=O)N[C@@H](CO)C(=O)N[C@@H](CCCCN)C(=O)N[C@@H](CC(C)C)C(=O)N[C@@H](CCCNC(=N)N)C(=O)N[C@@H](CO)C(=O)N[C@@H](CCC(N)=O)C(=O)N[C@@H](CC(C)C)C(=O)N[C@H](C(=O)N[C@@H](CCCCN)C(=O)N[C@@H](CCCNC(=N)N)C(=O)N[C@@H](CCCCN)C(N)=O)C(C)C)NC(=O)[C@H](CCC(=O)O)NC(=O)[C@H](CO)NC(=O)[C@H](CCCCN)NC2=O)NC(=O)[C@H](CO)NC(=O)[C@H](CC(N)=O)NC(=O)[C@H](CCC(=O)O)NC1=O)C(C)C)C(C)C) [Compound 268]”, in data set [1] (40% TFE/water), the “[0]208 mean residue ellipticity at λ=208 nm” value was “-.304E04 deg cm^2 dmol^−1”, the “[0]222/[0]208 ratio of ellipticities” value stood at 0.83 and the “[0]222 mean residue ellipticity at λ=222 nm” value was -2.54E04 deg cm^2 dmol^−1. In data set [1] (setting [2]), the “[θ]222/[θ]208 ratio of ellipticities” value is 0.40. For the same substance, the “[θ]222/[θ]208 ratio of ellipticities” value in data set [1] (setting [3]) was found to be 0.40. In addition, in data set [1] (water), the “[0]208 mean residue ellipticity at λ=208 nm” value is -6.74E+03 deg cm^2 dmol^−1, the “[0]222/[0]208 ratio of ellipticities” value is on record as 0.40 and the “[0]222 mean residue ellipticity at λ=222 nm” value is given as -2.71E+03 deg cm^2 dmol^−1. In addition, the “Inflammation (% Inhib.)” value in the data set on NF-κB was 0 % Inhib.
As for “Ac-(cyclo-6,10)-VSKLR[EQLVK]RKQN-NH2 (Ac-VSKLREQLVKRKQN-NH2; lactam 6-10; SMILES CC(=O)N[C@H](C(=O)N[C@@H](CO)C(=O)N[C@@H](CCCCN)C(=O)N[C@@H](CC(C)C)C(=O)N[C@@H](CCCNC(=N)N)C(=O)N[C@H]1CCC(=O)NCCCC[C@@H](C(=O)N[C@@H](CCCNC(=N)N)C(=O)N[C@@H](CCCCN)C(=O)N[C@@H](CCC(N)=O)C(=O)N[C@@H](CC(N)=O)C(N)=O)NC(=O)[C@H](C(C)C)NC(=O)[C@H](CC(C)C)NC(=O)[C@H](CCC(N)=O)NC1=O)C(C)C) [Compound 152]”, the “[θ]222/[θ]208 ratio of ellipticities” value in data set [1] (setting [3]) is given as 0.61. Moreover, in data set [1] (in 40% TFE/water), the “[0]222/[0]208 ratio of ellipticities” value is listed as 0.70, the “[0]208 mean residue ellipticity” value is -1.50E+04 deg cm^2 dmol^−1 and the “[0]222 mean residue ellipticity” value is -1.19E+04 deg cm^2 dmol^−1. Further, in data set [1] (in water), the “[0]222/[0]208 ratio of ellipticities” value came to 0.61, the “[0]208 mean residue ellipticity” value is recorded as -7.90E+03 deg cm^2 dmol^−1 and the “[0]222 mean residue ellipticity” value is -4.85E+03 deg cm^2 dmol^−1. For the same substance, in the data set with NF-κB (10 ng/mL peptide with 200 ng/mL PAM3CSK4, 18 hours, compared to +PAM3), the “inhibition of inflammation (SEAP / NF-κB activity, in words)” value was “significantly inhibited inflammation”.
Turning to “Ac-(cyclo-7,11)-VSKLRS[ELVKK]KQN-NH2 (Ac-VSKLRSELVKKKQN-NH2; lactam 7-11; SMILES CC(=O)N[C@H](C(=O)N[C@@H](CO)C(=O)N[C@@H](CCCCN)C(=O)N[C@@H](CC(C)C)C(=O)N[C@@H](CCCNC(=N)N)C(=O)N[C@@H](CO)C(=O)N[C@H]1CCC(=O)NCCCC[C@@H](C(=O)N[C@@H](CCCCN)C(=O)N[C@@H](CCC(N)=O)C(=O)N[C@@H](CC(N)=O)C(N)=O)NC(=O)[C@H](CCCCN)NC(=O)[C@H](C(C)C)NC(=O)[C@H](CC(C)C)NC1=O)C(C)C) [Compound 153]”, the “[θ]222/[θ]208 ratio of ellipticities” value in data set [1] (setting [2]) worked out at 0.54. For the same substance, in data set [1] (setting [3]), the “[θ]222/[θ]208 ratio of ellipticities” value worked out at 0.54. Moreover, in data set [1] (in 40% TFE/water), the “[0]222/[0]208 ratio of ellipticities” value was found to be 0.74, the “[0]208 mean residue ellipticity” value is -1.02E+04 deg cm^2 dmol^−1 and the “[0]222 mean residue ellipticity” value is -8.53E+03 deg cm^2 dmol^−1. In addition, in data set [1] (in water), the “[0]222/[0]208 ratio of ellipticities” value is on record as 0.54, the “alpha-helical character by CD (in words)” value is listed as “decreased helicity”, the “[0]208 mean residue ellipticity” value is listed as -6.79E+03 deg cm^2 dmol^−1 and the “[0]222 mean residue ellipticity” value was -3.68E+03 deg cm^2 dmol^−1.
